First the molecules themselves.
B1: PTAR1 in the crystallised GGTase3-FBXL2-SKP1 complex (natural protein)
chain: MAETSEEVAVLVQRVVKDITNAFRRNPHIDEIGLIPCPEARYNRSPIVLVENKLGVESWCVKFLLPYVHNKLLLYRTRKQWLNRDELIDVTCTLLLLNPDFTTAWNVRKELILSGTLNPIKDLHLGKLALTKFPKSPETWIHRRWVLQQLIQETSLPSFVTKGNLGTIPTERAQRLIQEEMEVCGEAAGRYPSNYNAWSHRIWVLQHLAKLDVKILLDELSSTKHWASMHVSDHSGFHYRQFLLKSLISQTVIDSSVMEQNPLRSEPALVPPKDEEAAVSTEEPRINLPHLLEEEVEFSTDLIDSYPGHETLWCHRRHIFYLQHHLNAGSQLSQAMEVDGLNDSSKQGYSQETKRLKRTPVPDSLGLEMEHRFIDQVLSTCRNVEQARFASAYRKWLVTLSQ

Experiment [1] deals with T1, FBXL2 in the crystallised GGTase3-FBXL2-SKP1 complex (human, UniProt Q9UKC9 1-423).
T1 sequence: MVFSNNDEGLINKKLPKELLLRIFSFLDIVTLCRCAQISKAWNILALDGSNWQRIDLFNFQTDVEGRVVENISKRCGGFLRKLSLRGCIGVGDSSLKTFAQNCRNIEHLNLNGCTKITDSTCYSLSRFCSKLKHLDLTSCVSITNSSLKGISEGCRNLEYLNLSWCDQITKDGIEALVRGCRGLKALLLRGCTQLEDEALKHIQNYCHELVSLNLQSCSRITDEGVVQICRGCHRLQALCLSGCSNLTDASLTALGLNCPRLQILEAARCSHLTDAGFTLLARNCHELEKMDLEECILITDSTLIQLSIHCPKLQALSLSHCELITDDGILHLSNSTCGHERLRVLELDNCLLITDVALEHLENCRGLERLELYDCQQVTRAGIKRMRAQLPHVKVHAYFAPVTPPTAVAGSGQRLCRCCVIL
Description: crystal structure.

The target of experiment [2] is B1. The experiment in a line: crystal structure.

With B1, the binding result in experiment [1] is reported as “binds”.

B2: RabGGTB in the crystallised GGTase3-FBXL2-SKP1 complex (natural protein)
chain: MGTPQKDVIIKSDAPDTLLLEKHADYIASYGSKKDDYEYCMSEYLRMSGIYWGLTVMDLMGQLHRMNREEILAFIKSCQHECGGISASIGHDPHLLYTLSAVQILTLYDSINVIDVNKVVEYVKGLQKEDGSFAGDIWGEIDTRFSFCAVATLALLGKLDAINVEKAIEFVLSCMNFDGGFGCRPGSESHAGQIYCCTGFLAITSQLHQVNSDLLGWWLCERQLPSGGLNGRPEKLPDVCYSWWVLASLKIIGRLHWIDREKLRNFILACQDEETGGFADRPGDMVDPFHTLFGIAGLSLLGEEQIKPVNPVFCMPEEVLQRVNVQPELVS
Take B2: the binding result in experiment [2] is “binds”.

The values are drawn from PMC6609460 (Nature structural & molecular biology, 2019).
